The labels stand for the following.
T1: CD123-Fc重组蛋白 (human, UniProt P26951 19-305)
T1 construct: also called CD123-Fc蛋白; 人CD123-Fc; not shown: Fc part
T1 sequence: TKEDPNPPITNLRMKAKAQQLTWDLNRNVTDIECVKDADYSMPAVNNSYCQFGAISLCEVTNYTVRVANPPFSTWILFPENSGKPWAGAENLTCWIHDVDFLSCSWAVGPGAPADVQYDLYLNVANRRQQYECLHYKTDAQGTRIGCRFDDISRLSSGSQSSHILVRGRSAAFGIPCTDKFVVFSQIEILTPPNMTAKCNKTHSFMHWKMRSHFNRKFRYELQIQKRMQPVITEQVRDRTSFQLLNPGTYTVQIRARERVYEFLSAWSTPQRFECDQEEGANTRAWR

B1: 抗CD123 scFv-C18 (in a CAR on T cells) (scFv)
scFv: QSALTQPASVSGSPGQSITISCTGTSSDVGGYNYVSWYQQHPGKAPKLMIYDVSNRPSGVSNRFSGSKSGNTASLTISGLQAEDEADYYCSSYTSSSTLFVFGTGTELTVLGGGGSGGGGSGGGGSQVQLQESGPGLVKPSQTLSLTCTVSGGSISSGDYYWSWIRQSPGKGLEWIGYIHSTGTTYYNPSLKSRLTISLDTSKNQFSLKLNSVTAADTAVYYCARGGVGTIFNYWGQGTLVTVSS
notes: Human scFv from phage display; not shown: rest of the CAR, hinge domain to CD3-zeta domain
B2: 抗CD123 scFv-C2 (in a CAR on T cells) (scFv)
scFv: QSVVTQPPSVSAAPGQKVTISCSGSSSNIGNNYVSWYQQFPGTAPKLLIYDNNKRPSGIPDRFSGSKSGTSGTLGITGLQTGDEADYYCVTWDTSLSAGVFGGGTKLTVLGGGGSGGGGSGGGGSQITLKESGGGLVKPGGSLRLSCAASGFTFSNAWMSWVRQAPGKGLEWVGRIKSKTDGGTTDYAAPVKGRFTISRDDSKNTLYLQMNSLKTEDTAVYYCTTDPHGYYYGMDVWGQGTTVTVSS
notes: as for B1
B3: 抗CD123 scFv-C11 (in a CAR on T cells) (scFv)
scFv: QSVVTQPPSASGTPGQRVTISCSGSSSNIGSNYVYWYQQLPGTAPKLLIYRNNQRPSGVPDRFSGSKSGTSASLAISGLRSEDEADYYCAAWDDSLSGYVFGTGTKLTVLGGGGSGGGGSGGGGSEVQLVESGGGLVQPGRSLRLSCTASGFTFGDYAMSWVRQAPGKGLEWVGFIRSKAYGGTTEYAASVKGRFTISRDDSKSIAYLQMNSLKTEDTAVYYCTRDIGYYGSGSYSPFDYWGQGTLVTVSS
notes: Human scFv from phage display; also called 抗-CD123-C11; not shown: rest of the CAR, hinge domain to CD3-zeta domain
B4: 抗CD123 scFv-C29 (in a CAR on T cells) (scFv)
scFv: B3 scFv with S2P, V4L, L107V, Q128H
notes: as for B1
B5: 抗CD123 scFv-C30 (in a CAR on T cells) (scFv)
scFv: AIRLTQSPSSLSASVGDRVTITCQASQNINNYLNWYQQKSGKAPKLLIYDASNLEAGVPSRFSGSASGTDFTFTISSLQPEDIATYYCQQNDNLPLTFGQGTRLEIKGGGGSGGGGSGGGGSEVQLVESGGGVVRPGGSLRLSCAASGFTFGDYGMSWVRQAPGKGLEWVSGINWNGGSTGYADSVKGRFTISRDNAKNSLYLQMNSLRAEDTALYYCARDRAPDYGDYLQVGTTDYWGQGTLVTVSS
notes: as for B1
B6: 抗CD123 scFv-C4 (in a CAR on T cells) (scFv)
scFv: QSALTQPPSASGTPGQRVTISCSGSSSNIGSNYVNWYQQLPGTAPKLLIYRNNQRPSGVPDRFSGSKSGTSASLAISGLRSEDEADYYCAAWDDSLSGHGVFGTGTELTVLGGGGSGGGGSGGGGSQVQLVQSGPEVKKPGASVKVSCKASGYDFIRYYMNWVRQAPGQGPEWMGAIDPSDGDTTYGQKFQGRVTLTRDTFTSTVYMELSSLRSEDTAVYYCARDWELTNSYGLDVWGQGTTVTVSS
notes: as for B1
B7: 抗CD123 scFv-C9 (in a CAR on T cells) (scFv)
scFv: QSVLTQPPSASGTPGQRVTISCSGSNSNIENNYVYWYQHLPGTAPKRLIYQNNQRPSGVPDRFSGSKSGTSASLAISGLRSEDEADYYCSAWDDSLSAWVFGGGTELTVLGGGGSGGGGSGGGGSEVHLVESGGGLVQPGRSLRLSCTASGFTFGDYAMNWVRQAPGKGLEWVGFIRSKASGGTTDYAASVKGRFTISRDDSKSIAYLQMNSLKTEDTAVYYCTRALRGYSYGLFDYWGQGTLVTVSS
notes: as for B1
B8: 抗CD123 scFv-C14 (in a CAR on T cells) (scFv)
scFv: DIRMTQSPSSLSASVGDRVTITCQASQDITNYLNWYHQKPGKAPKLLIYDASNLETGVPSRFSGGGSGTDFTFTISSLQSEDIGTYYCQQYDDLPLTFGGGTKVEIKGGGGSGGGGSGGGGSQVQLQESGPGLVKPSETLSLTCTVSGGSISSSSHYWGWIRQPPGKGLEWIGSIYYSGSTYYNPSLKSRVTISVDTSKNQFSLKLSSVTAADTAVYYCARRVWVWPTYGMDVWGQGTTVTVSS
notes: as for B1
B9: 抗CD123 scFv-C16 (in a CAR on T cells) (scFv)
scFv: QSVVTQPPSASGTPGQRVTISCSGSSSNIEGNTVSWYQQFPGAAPKLLIYSNSYRASGVPDRFSGSKSGTSASLAISELQSEDEADYYCSAWDDSLNGPVFGGGTELTVLGGGGSGGGGSGGGGSQVQLQESGGGLVQPGGSLRLSCAASGFTFSSYSMNWVRQAPGKGLEWVSYISSSSSTIYYADSVKGRFTISRDNAKNSLYLQMNSLRAEDTAVYYCARDIYGDWDYYYYGMDVWGQGTTVTVSS
notes: as for B1
B10: 抗CD123 scFv-C17 (in a CAR on T cells) (scFv)
scFv: QSALTQPASVSGSLGQSITISCTGTSSDVGTYDYVSWYQQHPGKAPKLMIYDVTYRPSGVSHRFSGSKSGNTASLTISGLQADDEADYYCQQYNNWPPRYTFGQGTKVEIKGGGGSGGGGSGGGGSQVQLVQSGAEVEKPGASVKLSCTASGYNFNSYYMHWVRLTPGQGLEWMGLINPTNGRTTYAQKFQGRVTMTGDTSTRTVYLALSSLRSEDSALYYCARGSPPHIFDPDFDYWGQGTLVTVSS
notes: as for B1
B11: 抗CD123 scFv-C15 (in a CAR on T cells) (scFv)
scFv: DIQLTQSPSTLSASVGDRVTISCRASQSISSWLAWYQHKPGKAPKLLIYKTSALEDGVPSRFSGSGSGTEFTLTISSLQPDDFATYFCLHYGSYTFGQGTKVDIKGGGGSGGGGSGGGGSEVQLVESGGGLVNPGGSLRLSCEASGFTFSDYYISWIRQAPGKGLEWISYISGSSTYTDFADSVKGRFTISRDNAKNTVFLQMNSLRAEDTAVYYCARDRRGRFDPWGQGTLVTVSS
notes: as for B1
B12: 抗CD123 scFv-C5 (in a CAR on T cells) (scFv)
scFv: NFMLTQPHSVSESPGKTVTLSCTRSSGSIAGSYVQWYQQRPGSSPTTVIFQDNQRPSGVPDRFSGSIDKSSNSASLTISGLKTEDEADYYCQSYDSNNQVFGGGTKLTVLGGGGSGGGGSGGGGSEVHLVESGGGVVRPGGSLRLSCAASGFTFGDYGMSWVRQAPGKGLEWVSGINWNGGRTGYADSVKGRFTISRDNAKNSLYLQMNSLRAEDTALYYCARARGSGSYFGYMDVWGKGTTVTVSS
notes: Human scFv from phage display; also called 抗-CD123-C5; not shown: rest of the CAR, hinge domain to CD3-zeta domain
B13: 抗CD123 scFv-C26 (in a CAR on T cells) (scFv)
scFv: QSVLTQPPSASGTPGQRVTISCSGSRSNIGSNTVSWYQQFPGTAPKLLIYLNNQRPSGVPDRFSGSKSGTSASLAISGLQSEDEAEYYCATWDDDLNGVFGGGTKLTVLGGGGSGGGGSGGGGSEVQLVESGGGLVQPGGSLRLSCAASGFTLSNFEMNWVRQAPGRGLEWVSYISATTSATSYADSVKGRFTISRDNAKNSLYLQMNSLRAEDTAVYYCARVRDGYNFGYYYYYMDVWGKGTTVTVSS
notes: as for B1
B14: 抗CD123 scFv-C6 (in a CAR on T cells) (scFv)
scFv: SYELTQPPSVSVSPGQTARIPCSGADLGDQYVSWYQHQPGQSPLLVIYEDDKRPSGIPERFSGSNSGNTATLTISGTQAMDEADYYCQAWDGNAAIFGGGTKLTVLGGGGSGGGGSGGGGSQVQLVQSGGGSVQPGGSLRLSCAASGFTFTRYSMNWVRQAPGKGLEWVSYISSSSSTIYYADSVKGRFTISRDNAKNSLYLQMNSLRDEDTAVYYCARDGYGGNSDYYGMDVWGQGTTVTVSS
notes: as for B1

The results in this text go back to patent publication CN116018351A (SHANGHAI YOUTI JISHENG BIOMEDICAL CO LTD, dated 2023).

Substitutions are numbered along the chain they refer to.

The target in this experiment is T1, CD123-Fc重组蛋白. Kind of experiment: FACS staining of CAR T cells with CD123-Fc recombinant protein.
Take B1: the binding result is on record as “binds”.
In the case of B2 it was “binds”; in that of B3, “binds”.
In the case of B4 it was “binds”; in that of B5, “binds”; in that of B6, “binds”.
As for B7, the entry is “binds”.
Take B8: the binding result is reported as “binds”.
In the case of B9 it was “binds”.
Regarding B10, the binding result is “binds”.
As for B11, the entry is “binds”.
With B12, the binding result is listed as “binds”.
As for B13, the entry is “binds”.
In the case of B14 it was “binds”.
